Assay results taken from the supplement of paper PMC9170038.

How the values were obtained:
MS2 coat protein [1] = experiment: apparent KD of MS2 coat protein, switch OFF state (with FMN for OFF switches, without FMN for ON switches); designed switch direction (-1 OFF switch, 1 ON switch): 1; higher = weaker reporter binding; settings: FMN input: 0 or 200 uM; Eterna round: R93 (includes R88 designs)
In short: (§1)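 Values are apparent KD, taken as the median for each design of fits to normalised binding curves from individual clusters. The designed RNA switches were transcribed on-chip from Illumina sequencing clusters and exposed to SNAP-549-labelled MS2 coat protein at twofold increasing amounts from 0.7 or 1.5 nM to 3 µM. Titration used 100 mM Tris-HCl pH 7.5, 80 mM KCl and 4 mM MgCl2, without or with constant ligand.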

MS2 coat protein [2] = experiment: apparent KD of MS2 coat protein, switch ON state; designed switch direction (-1 OFF switch, 1 ON switch): 1; higher = weaker reporter binding; settings: FMN input: 0 or 200 uM; Eterna round: R93 (includes R88 designs)
In short: as §1

In the case of “AAAACACAUGAGGAUCACCCAUGUGCCUAAUUCGCAGGAUAUUUCUCGAUUAAAUGAUAGGAAGAAGGGUGAUAAA [Nob's Hobby 36 - Jieux - Same State 1]”, the “apparent KD of MS2 coat protein” value (MS2 coat protein [1]) is reported as 40.9 nM and the “apparent KD of MS2 coat protein” value (MS2 coat protein [2]) is reported as 186 nM.
For “GAAAAACAUGAGGAUCACCCAUGUAGAAAUAUGGGAGGAUAUACAAUGACGAAAGUCAAUGUAGAAGGCCUGAUAG [JL S1 M-MoE mod 4]”, the “apparent KD of MS2 coat protein” value (MS2 coat protein [1]) was 74.2 nM and the “apparent KD of MS2 coat protein” value (MS2 coat protein [2]) was 25.7 nM.
In the case of “AUAAAACAUGAGGAUCACCCAUGUAGAAAUAUGGGAGGAUAUACAAAGACGAAAGUCAAGGUAGAAGGCCUAAAAG [Mat - Same State 1 - Meechl mod - D118]”, the “apparent KD of MS2 coat protein” value (MS2 coat protein [1]) is reported as 47.4 nM and the “apparent KD of MS2 coat protein” value (MS2 coat protein [2]) is reported as 39.1 nM.
For “ACAAACAAAAGAGAGGAUAUCCAAAAGAAAACAUGAGGAUCACCCAUGUGAAAGAAAAUAAAAUGGGAGAAGGCUCAGAACAACA [Topaz 28]”, the “apparent KD of MS2 coat protein” value (MS2 coat protein [1]) was 46.2 nM and the “apparent KD of MS2 coat protein” value (MS2 coat protein [2]) was 29.2 nM.
For “GGUCGACAUGAGGAUCACCCAUGUAAGCCAAGGCAAGGAUAUGGGUAUAGGGUGCUAGGAUUAGAAGGUGCCAAAA [Soredige]”, the “apparent KD of MS2 coat protein” value (MS2 coat protein [1]) was 82.8 nM and the “apparent KD of MS2 coat protein” value (MS2 coat protein [2]) was 87.1 nM.
In the case of “AACAAUCUAUCUGAGGAUAUGUGUCGAAAGACAUGAGGAUCACCCAUGUCAAAACAUGGAAAGAUACAGAAGGCAGAUAGAUUGA [SS2: 1158]”, the “apparent KD of MS2 coat protein” value (MS2 coat protein [1]) is reported as 11.9 nM and the “apparent KD of MS2 coat protein” value (MS2 coat protein [2]) is reported as 8.33 nM.
For “GACGGACAUGAGGAUCACCCAUGUCGGAAAAGGCAAGGAUAUGGGCGGUACCAAUUUCGGUCAGAAGGUGCAAAAG [Beenedriar]”, the “apparent KD of MS2 coat protein” value (MS2 coat protein [1]) was 61 nM and the “apparent KD of MS2 coat protein” value (MS2 coat protein [2]) was 117 nM.
In the case of “AAAAGACAUGAGGAUCACCCAUGUAAAAACAUGGGAGGAUAUGCAUGGAAAACAUGCUGUGCAGAAGGCUCAUGUC [SS1 - 18]”, the “apparent KD of MS2 coat protein” value (MS2 coat protein [1]) is reported as 25.5 nM and the “apparent KD of MS2 coat protein” value (MS2 coat protein [2]) is reported as 40 nM.
In the case of “GAAAAACAUGAGGAUCACCCAUGUGUAAAUAUGGAAGGAUAUACAAAGACGGAAGUCAAAGUAGAAGGUCUAAAAG [Mat - Same State 1 - Eli mod - D18]”, the “apparent KD of MS2 coat protein” value (MS2 coat protein [1]) is reported as 30.3 nM and the “apparent KD of MS2 coat protein” value (MS2 coat protein [2]) is reported as 24.5 nM.
With “AAAGAAGAAAGCGAGGAUAUGGAUGGGUAAACAUGAGGAUCACCCAUGUAUAAGAAAGAAAGAAACCAGAAGGCGCAAAAGAAAA [Khenemmaatre Hakor]” the “apparent KD of MS2 coat protein” value (MS2 coat protein [1]) was 93.7 nM and the “apparent KD of MS2 coat protein” value (MS2 coat protein [2]) was 70 nM.
For “AAAAAACAUGAGGAUCACCCAUGUCGAAAGACGUGAGGAUAUGUACAGACUUCGGUCUGUACAGAAGGCAUGUAAA [SS1 - 1054]”, the “apparent KD of MS2 coat protein” value (MS2 coat protein [1]) was 1110 nM and the “apparent KD of MS2 coat protein” value (MS2 coat protein [2]) was 146 nM.
“AAGACACAUGAGGAUCACCCAUGUCAAGAGAGAUGAGGAUAUCUGAGUUAGUUAAGUUAAGGAGAAGGCAUGAAAA [LROPPY Same State 1 - v01_deltaG=3.81]” was tested, and the “apparent KD of MS2 coat protein” value (MS2 coat protein [1]) was 59.4 nM and the “apparent KD of MS2 coat protein” value (MS2 coat protein [2]) was 31 nM.
For “AGAGAUAACAGAGAGGAUAUCCAAUAGAAAACAUGAGGAUCACCCAUGUGAAAGAUAAUAAAAUGGGAGAAGGCUCACAAUAAGA [Topaz 42]”, the “apparent KD of MS2 coat protein” value (MS2 coat protein [1]) was 39.8 nM and the “apparent KD of MS2 coat protein” value (MS2 coat protein [2]) was 15.8 nM.
In the case of “AAUCCAAAUAGUCAGGAUAUCAAAAAUAAGACAUGAGGAUCACCCAUGUACUUAGUAAAAGUAAAUGAGAAGGGACAGGGUGAAA [JR_SS002_Sub403]”, the “apparent KD of MS2 coat protein” value (MS2 coat protein [1]) is reported as 29.4 nM and the “apparent KD of MS2 coat protein” value (MS2 coat protein [2]) is reported as 21.4 nM.
For “AAUAAACAUGAGGAUCACCCAUGUACCGACCACUAAGGAUAUGGGCGAAUAACAGCUCGGCCAGAAGGUAGAGGUG [Gebimarabi]”, the “apparent KD of MS2 coat protein” value (MS2 coat protein [1]) was 62.5 nM and the “apparent KD of MS2 coat protein” value (MS2 coat protein [2]) was 46.7 nM.
“UAAAAACAUGAGGAUCACCCAUGUAGAAAUAUGGGAGGAUAUACGAAGACGAAAGUCAAAGUAGAAGGCCUAAAAU [Mat - Same State 1 - Eli mod - D104]” was tested, and the “apparent KD of MS2 coat protein” value (MS2 coat protein [1]) was 58 nM and the “apparent KD of MS2 coat protein” value (MS2 coat protein [2]) was 21.8 nM.
“AAUAUAUUAAGUGAGGAUAUCGAAGAAAAAACAUGAGGAUCACCCAUGUGGGAAACCUGGUCGGGUGAGAAGGCACUUAAUAUAU [Samwise Clockwise 27 - Jieux - Same State 2]” was tested, and the “apparent KD of MS2 coat protein” value (MS2 coat protein [1]) was 85.4 nM and the “apparent KD of MS2 coat protein” value (MS2 coat protein [2]) was 45.5 nM.
For “AAAUAACAUGAGGAUCACCCAUGUUACAACAAUACAGGAUAUGUGGGUGAAAAUAGCAUGACAGAAGGGUACUGUA [SameState1 Malc#33]”, the “apparent KD of MS2 coat protein” value (MS2 coat protein [1]) was 124 nM and the “apparent KD of MS2 coat protein” value (MS2 coat protein [2]) was 237 nM.
With “AAACCACAUGAGGAUCACCCAUGUAGAAAUAUGGGAGGAUAUACGAAGACGAAAGUCAAAGUAGAAGGCCUAAAAG [saturn 1]” the “apparent KD of MS2 coat protein” value (MS2 coat protein [1]) was 72.4 nM and the “apparent KD of MS2 coat protein” value (MS2 coat protein [2]) was 24.5 nM.
With “GAAAAACAUGAGGAUCACCCAUGUAAGAUAAACACAGGAUAUGCGAAAAGAAACAAAGAAGCAGAAGGGUGAAGAA [Mat - Same State 1 - Tesla mod - 46]” the “apparent KD of MS2 coat protein” value (MS2 coat protein [1]) was 30.2 nM and the “apparent KD of MS2 coat protein” value (MS2 coat protein [2]) was 18 nM.
With “AAAGACAUGGUGCAGGAUAUAUUAAUAGUCACAUGAGGAUCACCCAUGUUCAUUUAUAUGAACGAGUAGAAGGGCGAUGAAAAAA [SameState2 Malc#7]” the “apparent KD of MS2 coat protein” value (MS2 coat protein [1]) was 38.8 nM and the “apparent KD of MS2 coat protein” value (MS2 coat protein [2]) was 38.4 nM.
For “AGAAUAAAAAGACAGGAUAUCCAAAAUAAAACAUGAGGAUCACCCAUGUAAAAAAAAUAAAAAUGGGAGAAGGGUCAAAAUAAGA [Mat - Same State 2 - JL mod - D63]”, the “apparent KD of MS2 coat protein” value (MS2 coat protein [1]) was 31.9 nM and the “apparent KD of MS2 coat protein” value (MS2 coat protein [2]) was 18.8 nM.
“AACAAUCUAUCUGAGGAUAUCAUGACAAAGACAUGAGGAUCACCCAUGUGCAGGAAAACUGCUUAUGAGAAGGCAGAUAGAUUGA [SS2: 1113]” was tested, and the “apparent KD of MS2 coat protein” value (MS2 coat protein [1]) was 14.6 nM and the “apparent KD of MS2 coat protein” value (MS2 coat protein [2]) was 11 nM.
With “AAAAAACAUGAGGAUCACCCAUGUAAAAAAAACACAGGAUAUCCCUUUAAAAAAAAAAAAGGAGAAGGGUGAAAAA [Nob's Hobby 4 - Jieux - Same State 1]” the “apparent KD of MS2 coat protein” value (MS2 coat protein [1]) was 23.4 nM and the “apparent KD of MS2 coat protein” value (MS2 coat protein [2]) was 20.4 nM.
With “AUGGUGUAGGUACAGGAUAUGUUGCUCGUAACAUGAGGAUCACCCAUGUACCUAUGAGAUUAAAUGCAGAAGGGUGCACACCACG [Usbivece]” the “apparent KD of MS2 coat protein” value (MS2 coat protein [1]) was 35.5 nM and the “apparent KD of MS2 coat protein” value (MS2 coat protein [2]) was 70.1 nM.
With “AAUACACAUAGUCAGGAUAUCAAAACUAAGACAUGAGGAUCACCCAUGUAAUAAGUAAAAGUAAAUGAGAAGGGACAGGGUGACC [JR_SS002_Sub404]” the “apparent KD of MS2 coat protein” value (MS2 coat protein [1]) was 63.9 nM and the “apparent KD of MS2 coat protein” value (MS2 coat protein [2]) was 130 nM.
In the case of “AAUAAACAUGAGGAUCACCCAUGUCUUUUACAUCAAGGAUAUGGGAUCGGAAAUCCGACACCAGAAGGUGAGUAGA [Userra]”, the “apparent KD of MS2 coat protein” value (MS2 coat protein [1]) is reported as 300 nM and the “apparent KD of MS2 coat protein” value (MS2 coat protein [2]) is reported as 157 nM.
In the case of “CGAAGACAUGAGGAUCACCCAUGUGGGAAUAUGGGAGGAUAUACAAAGACGAGAGUCAGAGUAGAAGGCCUAGGAG [salish99-ss1-106]”, the “apparent KD of MS2 coat protein” value (MS2 coat protein [1]) is reported as 59.3 nM and the “apparent KD of MS2 coat protein” value (MS2 coat protein [2]) is reported as 40.2 nM.
In the case of “ACUACACAUGAGGAUCACCCAUGUCAGGUCGGACUAGGAUAUUAUAAACCAGAGUAAAAAUAAGAAGGAGUAGAAA [JR_SS001_Sub309]”, the “apparent KD of MS2 coat protein” value (MS2 coat protein [1]) is reported as 29.9 nM and the “apparent KD of MS2 coat protein” value (MS2 coat protein [2]) is reported as 37.9 nM.
In the case of “GAAAAACAUGAGGAUCACCCAUGUAGAAAUAUGGGAGGAUAUACAAAGACGUAAGUCAAAGUAGAAGGCCUAAAAG [Mat - Same State 1 - Eli mod - D8]”, the “apparent KD of MS2 coat protein” value (MS2 coat protein [1]) is reported as 76.9 nM and the “apparent KD of MS2 coat protein” value (MS2 coat protein [2]) is reported as 19.1 nM.
“AAUAUACAUGAGGAUCACCCAUGUUUUAAUAGUUGAGGAUAUACGGGUGAAAAUAGCAUAGUAGAAGGCGAGUGUA [SameState1 Malc#12]” was tested, and the “apparent KD of MS2 coat protein” value (MS2 coat protein [1]) was 106 nM and the “apparent KD of MS2 coat protein” value (MS2 coat protein [2]) was 146 nM.
With “CAGAAGGAGAGAGAGGAUAUCCAAAGGAAAACAUGAGGAUCACCCAUGUAAAAGGUAGGAAAUUGGGAGAAGGCUCAAGAGAGAG [salish99-ss2-110]” the “apparent KD of MS2 coat protein” value (MS2 coat protein [1]) was 33.3 nM and the “apparent KD of MS2 coat protein” value (MS2 coat protein [2]) was 33.2 nM.
With “AGUCAACAUGAGGAUCACCCAUGUCUGAGAGCAUGAGGAUAUCUAGAUGGGCAGCAUGAUAGAGAAGGCAUGCGCC [Biongear]” the “apparent KD of MS2 coat protein” value (MS2 coat protein [1]) was 116 nM and the “apparent KD of MS2 coat protein” value (MS2 coat protein [2]) was 173 nM.
